# Measurements reported in patent US20250179215A1, “PLASMIN-BINDING VHHS” (RHEINISCHE FRIEDRICH-WILHELMS-UNIVERSITÄT BONN, priority 2022, published 2025).
# “Also recorded” adds a separate entry of the source.
# What was measured:
# [1] = molecular target: human plasmin (human, UniProt P00747 97-580; P00747 581-810); test: cell-based or functional assay
# [2] = test system: citrate-anticoagulated pooled normal human plasma; test: Rotational thrombelastometry clot formation parameters in plasma; format: biochemical; settings: VHHs or BPTI 2.4 μM, TXA 2.4 μg/ml; tPA 0.1 μg/ml
# Protocol: FIG. 10. The impact of VHHs on the clot formation parameters in plasma monitored by rotational thrombelastometry. […] After addition of tPA to reach a final concentration of 0.1 μg/ml, coagulation was initiated by addition of recombinant tissue factor (Dade® Innovin®) dissolved 1:100 in calcium chloride solution (0.2 M). The viscoelasticity of the formed clot was measured in terms of (A) clotting time, (B) maximum clot firmness, and (C) maximum clot elasticity. A non-binder VHH (GFP-enhancer VHH) was used as negative control. Mean values and SD were calculated out of three measurements.
# (§1) The impact of VHHs on the fibrinolytic activity in plasma and whole blood was monitored using rotational thrombelastometry using the ROTEM delta system (TEM Innovations Ltd., Munich, Germany). […] After addition of 0.1 μg/ml tPA, coagulation was initiated by addition of recombinant tissue factor (Dade Innovin, Siemens Healthcare, Marburg, Germany) dissolved 1:100 in calcium chloride (0.2 M). The viscoelasticity of the formed clot was measured in terms of key parameters including clotting time, maximal clot firmness, maximum clot elasticity, maximum lysis, lysis index after 60 minutes, and lysis onset time.
# [3] = test system: citrate-anticoagulated whole blood; test: Rotational thrombelastometry clot lysis in tPA-spiked whole blood; format: biochemical; settings: for lysis index at 60 min: concentrations above 1.2 μM, decrease from 65%; for lysis index at 60 min / lysis onset time: tPA 0.5 μg/ml; for lysis onset time: reduced from 47.2 min
# Excerpt: To further test the fibrinolysis-activating properties of VHHs in an ex-vivo model of hyperfibrinolysis, a whole blood based assay can be used whereat citrate-anticoagulated whole blood in the presence of VHHs is spiked with tPA and clot formation and the fibrinolysis rate of the formed clot monitored by thrombelastometry after initiation of clotting by addition of CaCl2) solution containing recombinant TF.
# FIG. 4. Influence of VHHs on endogenous fibrinolysis. (A) Citrate-anticoagulated whole blood was mixed with VHHs A11 or C5 and with tPA to achieve a final concentration of 0.5 μg/ml and clot formation was induced by addition of CaCl2) (0.2 M). (B) Lysis index at 60 min(C) Maximum lysis rates, and (D) lysis onset time were recorded. Mean values and SD were calculated out of three measurements.
# as §1
# [4] = molecular target: T1, plasmin (Homo sapiens, UniProt P00747); test: Activated factor V-inactivation assay (prothrombinase assay); format: biochemical; settings: for FVa inactivation by plasmin reduced to % of normal: summary statement, concentration not given; for FVa inactivation rate reduced to: plasmin 1.5 nM, rate without VHH = 100%
# T1 construct: human Lys-plasmin which is prepared from homogeneous Glu-plasminogen using uPA; purchased Haematologic Technologies, Inc. (Essex Junction, VT)
# Protocol: FIG. 6. (A) Influence of VHHs on plasmin-mediated FVa cleavage. Plasmin (1.5 nM) was incubated with increasing concentrations of VHHs for 30 min at 37° C. After addition of FVa (30 pM) and further incubation for 30 min, FXa (0.52 pM), prothrombin (10 nM) and a fluorogenic thrombin substrate (100 μM) were added and the FVa-dependent thrombin generation was measured. The FVa inactivation rate measured in the absence of VHHs or plasmin inhibitors was set as 100%. […] The data are presented as mean±SD of two independent measurements.
# Plasmin-mediated inactivation of activated factor V (FVa) was measured using a prothrombinase assay as recently described (Hamedani 2020). Briefly, 1.5 nM plasmin in assay buffer (20 mM Tris-HCl, 137 mM NaCl, 10 mg/ml phospholipids, 5 mM CaCl2, 1 mg/ml BSA, pH 7.4) was preincubated with VHHs (0.1 nM-10 μM final concentrations) for 30 min at 37° C. Then, 60 μl of the mixture were mixed with 60 μl of […] FVa. After further incubation for 30 min, 25 μl of the reaction mixture were mixed with 50 μl of 1.3 μM human FXa and 100 μM fluorogenic thrombin substrate (Boc-Asp(OBzl)-Pro-Arg-AMC) and 50 μl of 10 nM human prothrombin. Thrombin catalyzed substrate hydrolysis was monitored at λex of 360 nm and λem of 460 nm using the Synergy 2 microplate reader.
# [5] = molecular target: T1, plasmin; test: Michaelis-Menten kinetics of plasmin-mediated cleavage of fluorogenic peptide substrate; format: biochemical; settings: plasmin 5 nM; VHHs 1 μM, BPTI 3 nM, TXA 7.86 mg/ml; w/o ligand 51.8
# Protocol: Subsequently, 50 μl of the fluorogenic substrate (3.16-3,160 μM final concentration in assay buffer) was added. Substrate hydrolysis rates were monitored by kinetic measurements using the Synergy 2 microplate reader. Apparent Michaelis-Menten constants (Km) and the turn-over number (kcat) values for substrate hydrolysis were calculated from best fit values of the Michaelis-Menten equation and the catalytic efficiencies were expressed as ratios of kcat/Km.
# CI, confidence interval. ^a The turnover number (kcat) was calculated using Vmax values extracted from Michaelis-Menten least squares fit.
# [6] = molecular target: T1, plasmin; test: Biolayer Interferometry (BLI) binding of VHHs to human plasmin; settings: HIS-tagged VHH on biosensor
# Protocol: (§2) VHHs binding affinities to human and mouse plasminogen/plasmin were assessed according to Biolayer Interferometry (BLI) using the BLItz system (Pall Life Sciences, Dreieich, Germany) and the Blitz 1.2 software package (Hamedani 2016). […] Afterward, the biosensor was lowered into a tube containing 500 μl of binding buffer to determine kd and koff. All measurements were performed at a shaking speed of 2,200 rpm.
# [7] = molecular target: T2, mouse plasminogen (Mus musculus, UniProt P20918); test: Biolayer Interferometry (BLI) binding of VHHs to mouse plasminogen; settings: HIS-tagged VHH on biosensor
# T2 construct: mouse Glu-plasminogen, mouse plasmin; purchased Haematologic Technologies, Inc. (Essex Junction, VT)
# Protocol: as §2
# [8] = molecular target: T3, plasminogen (Homo sapiens, UniProt P00747); test: Plasmin generation assay (tPA-mediated plasminogen activation, purified system); format: biochemical; settings: for inhibition of plasmin generation at higher concentrations: at the assessed / higher concentrations; for EC50: plasminogen 10 nM, tPA 10 nM, read-out: EC50 of tPA-induced plasmin generation
# T3 construct: Plasma derived human Glu-plasminogen; purchased Haematologic Technologies, Inc. (plasminogen); Boehringer Ingelheim (tPA)
# Protocol: In order to assess the influence of VHHs on tPA-mediated plasminogen activation, plasminogen was preincubated with increasing concentrations of VHHs. After addition of tPA, plasmin generation was measured over time using a fluorogenic plasmin peptide substrate.
# FIG. 5. Influence of VHHs on tPA-mediated plasminogen activation. […] After addition of tPA (10 nM final concentration) plasmin generation was measured over time using the fluorogenic plasmin assay. The data are presented as mean±SD of three independent measurements.
# Plasminogen (50 nM) was incubated with VHHs (2 μM to 0.2 μM) for 30 min at 37° C. in assay buffer. Subsequently, 20 μl of 50 nM tPA was added to the mixture and incubated at 37° C. After 3 hours of incubation at 37° C., 50 μl of the mixture were transferred to the wells of black F16 Fluoronunc modules and after addition of 50 μl of the plasmin-specific fluorogenic substrate (800 μM) fluorescence intensities were measured at λex of 360 nm and λem of 460 nm using the Synergy 2 microplate reader.
# [9] = molecular target: T1, plasmin; test: VHHs competition ELISA (plasmin binding to immobilized VHH); settings: free VHH vs immobilized VHH; plasmin 10 nM
# Protocol: FIG. 2. VHHs competition ELISA. The VHH (A) A11 or (B) C5 was immobilized in the microtiter plate by overnight incubation of 10 μg/ml VHH in 100 μl of coating buffer. […] Data represent the mean±SD of two measurements.
# To assess the competition of VHHs for similar or overlapping binding sites on the plasmin molecule, a competition ELISA was performed. Microtiter (96-well) plates were coated with VHHs (10 μg/ml in coating buffer, 100 μl/well) at 2-8° C. overnight. Wells were washed and non-specific protein-binding sites were blocked with 20 mg/ml bovine serum albumine (BSA) for 2 h at RT. After removing the blocking buffer, wells were overlaid with a reaction mixture containing plasmin (10 nM) and VHHs (0.316 nM-31.6 μM) in buffer (20 mM HEPES, 154 mM NaCl, BSA 1 mg/ml, pH 7.4) for 30 min at RT. After washing the amount of bound plasmin was quantified through hydrolysis rates of the fluorogenic plasmin substrate (300 μM, 100 μl/well). The fluorescence intensity measured in the absence of free VHHs was set as 100%.
# [10] = molecular target: T1, plasmin; test: Influence on catalytic activity of plasmin with fluorogenic peptide substrate; format: biochemical; settings: plasmin 5 nM; for increase in substrate conversion: at molar ratios of VHHs over plasmin of 158 (A11) and 500 (C5)
# Protocol: FIG. 3. Effect of plasmin VHHs on the catalytic activity of plasmin for peptide substrates. […] Mean values and SD were calculated out of three measurements.
# After incubation, 50 μl of the mixtures were transferred to the wells of black F16 Fluoronunc modules (Thermo Fisher Scientific [Nunc]). Subsequently, 50 μl of 800 μM PLM-specific fluorogenic peptide substrate in the assay buffer (H-Ala-Phe-Lys-AMC, Bachem) was added to the wells and the kinetics of plasmin-mediated substrate hydrolysis was monitored using the Synergy 2 microplate reader.
# [11] = molecular target: T4, tPA (Homo sapiens, UniProt P00750); test: Biolayer Interferometry (BLI) binding of VHHs to tPA; settings: HIS-tagged VHH on biosensor
# T4 construct: purchased Boehringer Ingelheim (Biberach, Germany) Actilyse
# [12] = molecular target: Ocriplasmin (Homo sapiens, UniProt P00747); test: Biolayer Interferometry (BLI) binding of VHHs to ocriplasmin (miniplasmin); settings: HIS-tagged VHH on biosensor
# Protocol: as §2
# T3 sequence (P00747 20-810 limits assumed): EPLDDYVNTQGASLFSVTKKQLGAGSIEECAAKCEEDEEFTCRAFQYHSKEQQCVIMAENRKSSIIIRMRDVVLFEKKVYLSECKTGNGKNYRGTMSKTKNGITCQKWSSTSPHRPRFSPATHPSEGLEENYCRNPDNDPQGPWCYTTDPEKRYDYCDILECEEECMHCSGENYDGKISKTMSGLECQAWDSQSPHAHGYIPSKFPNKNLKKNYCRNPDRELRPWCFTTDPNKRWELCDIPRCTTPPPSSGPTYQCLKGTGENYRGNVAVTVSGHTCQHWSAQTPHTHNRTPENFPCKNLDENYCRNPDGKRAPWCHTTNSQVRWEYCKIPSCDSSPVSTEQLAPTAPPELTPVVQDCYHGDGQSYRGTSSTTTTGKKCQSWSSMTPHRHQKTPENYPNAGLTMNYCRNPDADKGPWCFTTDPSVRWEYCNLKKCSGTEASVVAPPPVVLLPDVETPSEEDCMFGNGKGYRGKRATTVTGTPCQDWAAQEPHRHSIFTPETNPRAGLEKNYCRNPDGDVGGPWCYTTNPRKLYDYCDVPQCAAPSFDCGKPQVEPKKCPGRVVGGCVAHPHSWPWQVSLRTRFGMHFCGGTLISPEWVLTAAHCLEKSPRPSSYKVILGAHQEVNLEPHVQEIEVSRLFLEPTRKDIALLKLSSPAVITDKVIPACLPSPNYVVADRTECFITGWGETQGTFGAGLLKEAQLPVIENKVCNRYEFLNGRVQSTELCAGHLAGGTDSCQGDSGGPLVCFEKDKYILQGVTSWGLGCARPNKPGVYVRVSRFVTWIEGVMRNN
# T1 sequence (P00747 97-580 limits assumed): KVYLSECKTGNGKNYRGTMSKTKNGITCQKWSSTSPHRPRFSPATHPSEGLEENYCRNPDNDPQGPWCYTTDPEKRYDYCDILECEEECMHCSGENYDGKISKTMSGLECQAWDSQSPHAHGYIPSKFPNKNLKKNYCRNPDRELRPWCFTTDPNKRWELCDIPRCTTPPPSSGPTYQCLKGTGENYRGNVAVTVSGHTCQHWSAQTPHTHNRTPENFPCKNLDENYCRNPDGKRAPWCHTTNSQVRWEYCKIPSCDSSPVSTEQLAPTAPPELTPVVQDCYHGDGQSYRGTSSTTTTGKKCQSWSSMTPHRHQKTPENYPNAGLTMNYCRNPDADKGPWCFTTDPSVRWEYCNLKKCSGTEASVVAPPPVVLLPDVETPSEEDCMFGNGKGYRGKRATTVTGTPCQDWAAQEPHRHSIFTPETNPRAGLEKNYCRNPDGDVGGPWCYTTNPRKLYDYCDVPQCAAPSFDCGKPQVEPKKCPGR
# T1 sequence (P00747 581-810 limits assumed): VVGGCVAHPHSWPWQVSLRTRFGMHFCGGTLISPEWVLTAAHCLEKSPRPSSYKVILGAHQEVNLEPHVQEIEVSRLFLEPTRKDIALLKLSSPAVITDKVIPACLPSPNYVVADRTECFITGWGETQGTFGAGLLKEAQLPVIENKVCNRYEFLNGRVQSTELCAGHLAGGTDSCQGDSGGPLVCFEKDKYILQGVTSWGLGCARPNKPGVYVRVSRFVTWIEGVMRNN
# Sequence of Ocriplasmin (P00747 581-810 limits assumed, other chains not shown): as the sequence (P00747 581-810 limits assumed) above
# T4 sequence (P00750 36-562): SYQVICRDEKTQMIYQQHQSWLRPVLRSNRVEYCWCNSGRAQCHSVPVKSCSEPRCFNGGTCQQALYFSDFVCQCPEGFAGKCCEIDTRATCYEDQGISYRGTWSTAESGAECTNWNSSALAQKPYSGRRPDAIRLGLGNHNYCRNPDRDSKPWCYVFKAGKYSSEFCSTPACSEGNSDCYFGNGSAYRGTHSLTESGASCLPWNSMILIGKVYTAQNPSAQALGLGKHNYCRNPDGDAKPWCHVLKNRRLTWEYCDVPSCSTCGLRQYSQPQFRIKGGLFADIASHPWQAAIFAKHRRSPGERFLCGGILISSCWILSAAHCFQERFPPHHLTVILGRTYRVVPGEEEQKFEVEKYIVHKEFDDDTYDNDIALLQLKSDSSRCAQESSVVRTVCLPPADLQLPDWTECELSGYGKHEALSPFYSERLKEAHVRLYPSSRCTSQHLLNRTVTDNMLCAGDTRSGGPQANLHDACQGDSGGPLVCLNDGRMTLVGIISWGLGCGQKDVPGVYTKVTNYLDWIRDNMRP
# T2 sequence (P20918 20-812 limits assumed): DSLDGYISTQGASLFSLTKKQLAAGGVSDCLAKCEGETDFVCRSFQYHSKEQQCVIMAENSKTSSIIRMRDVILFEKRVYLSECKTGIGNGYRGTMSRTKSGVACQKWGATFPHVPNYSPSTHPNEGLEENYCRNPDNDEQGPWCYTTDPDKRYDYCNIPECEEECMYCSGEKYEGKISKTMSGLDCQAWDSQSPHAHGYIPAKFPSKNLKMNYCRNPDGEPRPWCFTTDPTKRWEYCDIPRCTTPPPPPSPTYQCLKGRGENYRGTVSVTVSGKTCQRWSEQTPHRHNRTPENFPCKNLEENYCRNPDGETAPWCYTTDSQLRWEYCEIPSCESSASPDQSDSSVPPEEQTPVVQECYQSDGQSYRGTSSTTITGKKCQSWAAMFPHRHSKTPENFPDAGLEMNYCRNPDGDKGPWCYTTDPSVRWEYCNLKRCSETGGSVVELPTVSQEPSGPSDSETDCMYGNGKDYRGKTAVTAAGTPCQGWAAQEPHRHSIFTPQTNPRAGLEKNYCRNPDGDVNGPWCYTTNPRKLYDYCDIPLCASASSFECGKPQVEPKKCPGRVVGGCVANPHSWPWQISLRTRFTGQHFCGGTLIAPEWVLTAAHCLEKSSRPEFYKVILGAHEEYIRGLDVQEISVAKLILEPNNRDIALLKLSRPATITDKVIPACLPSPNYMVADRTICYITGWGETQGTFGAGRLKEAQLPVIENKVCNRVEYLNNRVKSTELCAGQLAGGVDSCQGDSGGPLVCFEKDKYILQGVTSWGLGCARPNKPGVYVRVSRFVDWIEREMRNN
# Sequence of human plasmin (P00747 97-580 limits assumed, chain 1 of 2): as the sequence (P00747 97-580 limits assumed) above
# Sequence of human plasmin (P00747 581-810 limits assumed, chain 2 of 2): as the sequence (P00747 581-810 limits assumed) above
FVa inactivation by plasmin reduced to % of normal [4],kD human plasmin [6],kD mouse plasminogen [7],inhibition of plasmin generation at higher concentrations [8],EC50 [8],kD tPA [11],Molecule,kcat × 10^3 (s^−1) mean (95% CI) [5],lysis index at 60 min [3],lysis onset time [3],competition of VHHs for binding site on plasmin molecule [9],increase in substrate conversion [10],also measured
,,,,,,human alpha2-antiplasmin (from UniProt P08697 40-491),,,,,,residual plasmin activity after incubation with α2AP [1]: < 0.1%
20%,,,,,,"Aprotinin [BPTI, reference compound]",29.6 (29-30) s^−1,,,,,"effect on fibrin clot formation parameters (clotting time, maximum clot firmness, maximum clot elasticity) [2]: does not affect; effect on lysis compared to VHHs (FIG. 4C, maximum lysis rates) ([3]; tPA-spiked whole blood): inhibition of lysis; maximal inhibition rate of plasmin-mediated cleavage of FVa ([4]; BPTI 10 μM): 26%"
80%,low nanomolar range,no reactivity,no inhibitory effect,2.3 nM,weak binding,"VHH C5: Plasmin-binding alpaca VHH; variable domain SEQ ID NO: 10, or 20 with C-terminal His6-tag; CDRs SEQ ID NO: 4-6 (protein, C5 VHH) VHH: QVQLVESGGGLVQAGGSLRLSCAASGRRFMVVAMGWYRQAPGNQRELVASITNGGTTNYAGSVKGRFTISGDSAKNTVYLHMNSLKPEDTAVYYCTTDVVFRDGNGQIQSNWGQGTQVTVSS",69.9 (68-72) s^−1,0%,13.8 min,competed for the same or overlapping binding site,approx. 2.5 fold,FVa inactivation rate reduced to ([4]; C5 concentration of 3.16 nM or higher): 78%; kD Ocriplasmin ([12]; listed as C5): None of these VHHs bind and n.b.
,low nanomolar range,no reactivity,no inhibitory effect,0.93 nM,weak binding,"VHH A11: Plasmin-binding alpaca VHH; variable domain SEQ ID NO: 9, or 11 with C-terminal His6-tag; CDRs SEQ ID NO: 1-3 (protein, A11 VHH) VHH: QVQLVETGGGLVQAGGSLRLSCAASGNIFSINAMDWYRQAPGKERELVAAITSGGTTNYADSVKGRFTISRDNAKDTVYLQMNSLKPEDAAFYYCNADGYYSDYDKNLAEFNSWGQGTQVTVSS",67.2 (65-70) s^−1,0%,10.3 min,competed for the same or overlapping binding site,approx. 2.5 fold,FVa inactivation rate reduced to ([4]; A11 concentrations above 10^-9 M): 60%; FVa inactivation by plasmin reduced to % of normal ([4]; listed as A11): 60%; molar ratio of VHHs over plasmin at which approx. 2.5-fold increase in substrate conversion was achieved ([10]; H-Ala-Phe-Lys-AMC): 158; kD Ocriplasmin ([12]; listed as A11): None of these VHHs bind; also recorded: n.b.*
